Patent US6696546B1, “Peptide that kills growing but not stationary cells” (The Trustees of Columbia University in the City of New York, priority 2000, dated 2004)

Columns and labels:
Wi38 cells = test: DNA content by propidium iodide staining and FACS, Wi38 cells; type: cell-based, human
HaTCat cells = test: DNA content by propidium iodide staining and FACS, HaTCat cells; type: cell-based, human; conditions: for S-phase population of cells: confluent (resting) HaTCat cells
Text: A graphical representation of DNA content of cells as collected by propidium iodide staining and subsequent FACS analysis. G0/G1, S, and G2M phases are depicted of cells either treated or not treated with cell permeable peptides. The percentage of untreated cell in a given phase are in white, PAP's CRM in (SEQ ID NO: 3) black, p21's in gray (SEQ ID NO: 5), scrambled in horizontal stripes (SEQ ID NO: 4), internalization sequence alone in vertical stripes (SEQ ID NO: 2).
(A) PAP's CRM (SEQ ID NO: 3) kills growing HaTCats, but stimulates S-phase entry of stationary HaTCats. The bar graph depicts the fold induction over non-treated cells of sub-G1 DNA content and S-phase DNA content of four different populations of cells. The percentage of cells found S-phase of each population is noted below the bar graph. Sub-G1 DNA content and S-phase DNA content are depicted of cells either treated or not treated with cell permeable peptides. The percentages of untreated cell in a given phase are in white, PAP's CRM (SEQ ID NO: 3) in black, p21's in gray (SEQ ID NO: 5), and scrambled in stripes (SEQ ID NO: 4).
Panel B of FIG. 7 is a graphical representation of DNA content of cells, derived from propidium iodide staining and subsequent the fluorescence-activated cell sorter (FACS) analysis. In this experiment, an immortalized human karitinocyte cell line (HaTCat) was treated with the cell-membrane permeable form of PAP's CRM (SEQ ID NO:3). […] This is not observed with the scrambled sequence (SEQ ID NO:4), nor the p21 (SEQ ID NO:5) nor the penetratin sequence alone (SEQ ID NO:2).
FIG. 8 is a graphical representation of the fold induction, over untreated control cells, of sub-G1 DNA content and S-phase DNA content of four different populations of HaTCat cells. These populations vary in their proliferation rates due to their confluency, starting with the least confluent population of cells, with 30% in S-phase, to the most confluent population, with only 3.5% in S-phase. Cycling cells, with over 30% of cells in S-phase, die when treated with the SEQ ID NO:3.
(§1) After treatment with or without cell membrane permeable peptides (Synpep), cells were trypsinized, centrifuged and washed in PBS. Cell were than fixed with methanol and kept at −20° C. for 40 min or overnight. After washing and equilibration in PBS, the cell pellet was resuspended in 1 ml of staining solution containing 50 μg of RNase A and 0.5 μg of propidium iodide per ml in PBS, and kept at room temperature for over 30 minutes. The cells were then applied to the fluorescence-activated cell sorter (FACSCalibur; Becton Dickson). The FACSCalibur program was used to sort and count the cells, and the Modfit program was used to calculate the percentage of cells in the G0/G1, S, and G2/M phases.

MEFs [1] = test: DNA content by propidium iodide staining and FACS, mouse embryo fibroblasts; type: cell-based; conditions: sub-confluent MEFs; for percentage of cells with S-phase DNA content / percentage of cells with sub-G1 DNA content: one hour, SEQ ID NO:3 1.87-30 μM, controls 30 μM
Description: (A) PAP's CRM stimulates both the percentage of cells with sub-G1 DNA content and S-phase DNA content in a dose dependent manner. DNA content as measured by FACS analysis is graphically represented.
(B) PAP's CRM stimulates cell death over time. The percentage of cells with a sub-G1 DNA content with or without treatment with 30 μM of PAP's CRM (SEQ ID NO: 3) for varying lengths of time is shown.
(C) The percents of cells with G0/G1 (in black), S (in gray), and G2/M (in white) DNA contents of the same population of cells in (B) are depicted.
Panel A depicts the MEF's response to a concentration curve of SEQ ID NO:3. […] After a one hour incubation, cells were harvested for propidium iodine staining and subsequent FACS analysis.
To further study the MEF's reactions to the membrane permeable peptide, SEQ ID NO:3, and to determine if the increase in S-phase depicts a stimulation or inhibition of proliferation, treatment with one concentration was followed at varying time points. Sub-confluent MEFs were treated with 30 μM SEQ ID NO:3, harvested at different time points, and their DNA content was analyzed by propidium iodide staining and subsequent FACS analysis. FIG. 10 panel B depicts the percentage of death initiated over time, as measured by sub-G1 DNA content. 30% of the cells die after the first hour of treatment, 50% by the forth. […], depicts the cell cycle analysis over time of those cells that are not dying. Here, the stimulation of the cell cycle over time by SEQ ID NO:3, is clearly seen, ruling out an inhibitory effect. In the first hour, 25% of the cycling cells are induced into S-phase, and in time, into G2/M and back into G1.
as §1

MEFs [2] = test: as above; type: cell-based; conditions: MEFs with pRB, after one hour of treatment, duplicate
pRB knock out MEFs = test: DNA content by FACS, pRB knock out mouse embryo fibroblasts; type: cell-based
Text: (A) A graphical representation of the fold induction of sub-G1 DNA content in cells with or without pRB, as indicated below the graph. […] (B) A graphical representation of the fold induction of S-phase DNA content in the same cells.
The ability of SEQ ID NO:3 to stimulate both death and proliferation in mouse embryo fibroblasts, allows us to test the model, wherein pRB inhibits cell death after treatment with SEQ ID NO:3, thereby allowing for stimulation of proliferation (FIG. 9). In the absence of pRB, cells would no longer have the anti-apoptotic activity of pRB, and treatment with SEQ ID NO:3 would lead only to cell death. In the experiment shown in FIG. 11, two genetically identical populations of cells were used, except that one was pRB minus, by way of knock out technology. The fold inductions of both sub-G1 and S-phase are represented in FIG. 11. Upon treatment with SEQ ID NO:3, here done in duplicate, the cells with pRB show at least a two-fold induction of S-phase after one hour of treatment. The cells without pRB show none, but therefore a dramatic (up to 50 fold) induction of death.
After treatment with or without cell membrane permeable peptides (Synpep), cells were trypsinized, centrifuged and washed in PBS. […] The cells were then applied to the fluorescence-activated cell sorter (FACSCalibur; Becton Dickson). […]

cyclin B1/cdc2 = cyclin B1/cdc2 (Homo sapiens, UniProt P14635); test: in vitro kinase assay, pRB phosphorylation by cyclin B1/cdc2; type: biochemical; conditions: peptide 18 μM
Chain of cyclin B1/cdc2 (P14635 whole entry): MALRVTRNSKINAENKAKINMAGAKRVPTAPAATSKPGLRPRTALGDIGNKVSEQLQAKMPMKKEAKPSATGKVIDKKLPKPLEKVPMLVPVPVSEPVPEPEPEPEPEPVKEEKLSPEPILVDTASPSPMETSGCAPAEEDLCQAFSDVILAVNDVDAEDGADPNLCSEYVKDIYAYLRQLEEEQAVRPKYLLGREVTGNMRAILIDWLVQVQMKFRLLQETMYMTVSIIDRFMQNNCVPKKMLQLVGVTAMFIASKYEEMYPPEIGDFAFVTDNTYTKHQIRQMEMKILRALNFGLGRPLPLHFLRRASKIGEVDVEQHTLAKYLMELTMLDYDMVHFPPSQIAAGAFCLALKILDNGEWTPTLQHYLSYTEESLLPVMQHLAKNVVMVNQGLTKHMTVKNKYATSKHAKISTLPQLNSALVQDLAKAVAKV
Chain of cyclin B1/cdc2 (P06493 whole entry partner): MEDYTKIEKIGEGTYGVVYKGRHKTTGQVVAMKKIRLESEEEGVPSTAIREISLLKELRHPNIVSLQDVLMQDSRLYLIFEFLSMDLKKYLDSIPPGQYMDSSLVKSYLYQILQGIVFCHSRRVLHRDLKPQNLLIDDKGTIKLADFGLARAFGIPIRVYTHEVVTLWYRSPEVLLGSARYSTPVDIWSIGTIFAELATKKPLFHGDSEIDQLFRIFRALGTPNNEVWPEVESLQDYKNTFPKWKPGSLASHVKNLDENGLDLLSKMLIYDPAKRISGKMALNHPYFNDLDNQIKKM

cyclin A/cdk2 = cyclin A/cdk2 (Homo sapiens, UniProt P20248); test: in vitro kinase assay, pRB phosphorylation by cyclin A/cdk2; type: biochemical; conditions: peptide 9 μM and 18 μM; for pRB phosphorylation by cyclin A/cdk2: γ-32P ATP, SDS-PAGE, autoradiography
[3] = target: PAP-cyclin B1 interaction (Homo sapiens, UniProt P14635); test: GST-cyclin B1 pull-down assay of PAP binding
Chain of PAP-cyclin B1 interaction (P14635 whole entry): as the sequence (P14635 whole entry) above

[4] = target: cyclin D1-cdk2 association (Homo sapiens, UniProt P24385); test: GST-cyclin D1 binding assay with cdk2; conditions: peptide 9 μM and 20 μM; Western blot

SEQ ID NO:3: 8-mer peptide (SEQ ID NO:1) fused to penetratin (SEQ ID NO:2); cell-membrane permeable form of PAP's CRM (RQIKIWFQNRRMKWKKSKIRILVG; poly(A) polymerase cyclin recognition motif fued to Drosohilia Antennapedia homeodomain residues)
Wi38 death (sub-G1 DNA content) (Wi38 cells; populations of varying confluency): able to induce Wi38 death in a growth dependent manner | decrease in fold induction of sub G1 DNA content (Wi38 cells; with the increase in confluency and decrease in growth): 30 fold | S-phase population of cells (HaTCat cells): dramatic increase | cell death (sub-G1 DNA content) (HaTCat cells; cycling HaTCat cells, over 30% of cells in S-phase): die | cell death (sub-G1 DNA content) (HaTCat cells; most confluent HaTCat population, 3.5% in S-phase): cell death is in fact inhibited | cells that die (sub-G1 DNA content) (MEFs [1]; 30 μM, after the first hour): 30% | cells that die (sub-G1 DNA content) (MEFs [1]; 30 μM, by the fourth hour): 50% | cycling cells induced into S-phase (MEFs [1]; 30 μM, in the first hour): 25% | percentage of cells with S-phase DNA content (MEFs [1]): dramatically increased | percentage of cells with sub-G1 DNA content (MEFs [1]): dramatically increased | fold induction of S-phase (MEFs [2]): two | fold induction of death (sub-G1 DNA content) (pRB knock out MEFs): up to 50 fold | fold induction of S-phase (pRB knock out MEFs; MEFs without pRB, after one hour of treatment): none

SKIRILVG (poly(A) polymerase cyclin recognition motif) [SEQ ID NO:1, synthetic 8-mer peptide spanning PAP's cyclin recognition motif (CRM)]
cyclin B1 autophosphorylation (cyclin B1/cdc2): not affected | phosphorylation of pRB by cyclin B1/cdc2 (cyclin B1/cdc2): strongly and specifically inhibited | cyclin A phosphorylation in the same reaction mixture (cyclin A/cdk2; internal control for specificity): not cyclin A phosphorylation | pRB phosphorylation by cyclin A/cdk2 (cyclin A/cdk2): effectively inhibited | PAP I-GST-cyclin B1 binding ([3]; 2, 5, 10 and 20 μM peptide): dose-dependent enhancement | association of purified bacterial his-PAP I with GST-cyclin B1 ([3]; 2, 10 and 20 μM peptide, Western blot with anti-PAP antibody): strongly stimulated | input PAP bound to GST-cyclin B1 ([3]; highest peptide concentration, purified bacterial his-PAP I): ~100% | presence of cdk2 in the eluate of GST-cyclin D1 [4]: significantly increased

LRSGIKVI (scrambled sequence) [SEQ ID NO:4, fused to penetratin in cell tests, reference compound]
S-phase population of cells (HaTCat cells): not observed | percentage of cells with S-phase DNA content (MEFs [1]): No effects | percentage of cells with sub-G1 DNA content (MEFs [1]): No effects | pRB phosphorylation by cyclin A/cdk2 (cyclin A/cdk2): no effect | presence of cdk2 in the eluate of GST-cyclin D1 [4]: without significant effect
